The values that follow come from patent publication US20190092871A1 (VIB VZW, published 2019).

One experiment concerns the target T1, mouse CD20 (mouse, UniProt P19437 1-291).
T1 construct: whole, on cells; also called mCD20; CHO-K1-mCD20
T1 sequence (looked up): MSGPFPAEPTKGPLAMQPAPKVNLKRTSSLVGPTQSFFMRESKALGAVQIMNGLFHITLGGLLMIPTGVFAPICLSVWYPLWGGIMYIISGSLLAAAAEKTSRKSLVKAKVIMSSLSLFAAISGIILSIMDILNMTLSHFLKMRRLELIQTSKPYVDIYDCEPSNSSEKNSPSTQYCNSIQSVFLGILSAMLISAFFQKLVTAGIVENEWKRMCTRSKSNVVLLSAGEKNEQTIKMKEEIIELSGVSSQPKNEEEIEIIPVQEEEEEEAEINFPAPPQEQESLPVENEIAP
The experiment can be described thus: cell ELISA, crude periplasmic extract, CHO-K1 expressing mouse CD20 against parental CHO-K1. The method, then: The library was subjected to 3 consecutive rounds of panning (in solution), performed on stably transfected CHO-K1 cells expressing mouse CD20. A parallel panning was performed on parental (non-transfected CHO-K1) cells to serve as negative control for the calculation of CD20-specific phage enrichment. The enrichment for antigen-specific phages was assessed after each round of panning by comparing the number of phagemid particles eluted from transfected cells with the number of phagemid particles eluted from parental cells. […] In total, 285 colonies (95 from each round of panning) were randomly selected and their crude periplasmic extracts (including soluble VHHs) were analyzed by cell ELISA for specific binding to transfected CHO-K1, as compared to parental cells. […] The 11 different VHHs belong to 2 different groups.
The library was subjected to 2 consecutive rounds of panning (in solution), performed on stably transfected CHO-K1 cells expressing mouse CD20 as described above. Here, the phage population was enriched (for antigen-specific phages) about 2- and 45-fold after 1st and 2nd rounds of panning, respectively. Here, 190 colonies, randomly picked from 2nd round, were tested by cell ELISA as above and 10 colonies scored positive. Based on sequence data, the 10 positive colonies represented 8 different VHHs (FIG. 4, bottom panel). The 8 different VHHs belong to 2 different groups. One of the groups identified here is the same group as one of those identified above.

A further experiment has as its target T2, human CD20 (human, UniProt P11836 1-297).
T2 construct: The forward primer starts at codon 2; also called hCD20; CHO-K1-hCD20
T2 sequence: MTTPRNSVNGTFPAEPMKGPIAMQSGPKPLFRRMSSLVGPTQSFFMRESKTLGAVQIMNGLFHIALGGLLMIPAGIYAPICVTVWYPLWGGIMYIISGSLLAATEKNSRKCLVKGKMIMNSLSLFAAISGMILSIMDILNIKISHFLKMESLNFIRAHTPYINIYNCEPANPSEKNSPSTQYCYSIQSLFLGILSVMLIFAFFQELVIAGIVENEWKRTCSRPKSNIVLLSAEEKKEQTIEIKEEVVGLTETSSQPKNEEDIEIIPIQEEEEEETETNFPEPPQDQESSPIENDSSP
The experiment can be described thus: cell ELISA, crude periplasmic extract, CHO-K1 expressing human CD20 against parental CHO-K1.

B1: R2MUC70 (VHH)
VHH: QVQLQESGGGLVQAGGSLRLSCAASGRDFATYSMAWFRQAPGKERESVATISWSGQRTRYADSVKGRFTISRDNAKNTVYLQMNSLKPEDTAVYYCAAPRTWGEFPPTQYDSWGQGTQVTVSS
notes: Whole entry = VHH-AAA-HA-His6 (pMECS construct)
B1: the binding result in the experiment with mouse CD20 is on record as “binds”.

B2: R2MUC85 (VHH)
VHH: QVQLQESGGGLVQPGGSLRLSCATSGRDFATYSMAWFRQAPGKERESVATISWSGQRTRYADSVKGRFTISRDNAKNTVYLQMNSLKPEDTAVYYCAAPRTWGEFPPTQYDSWGQGTQVTVSS
notes: as for B1
For B2, in the experiment with mouse CD20, the binding result is recorded as “binds”.

B3: R3MUC58 (VHH)
VHH: QVQLQESGGGLVQPGGSLRLSCAASGRDFATYSMAWFRQAPGKERESVATISWSGQRTRYADSVKGRFTISRDNAKNTVYLQMNSLKPEDTAVYYCAAPRTWGEFPPTQYDSWGQGTQVTVSS
notes: as for B1
Take B3: the binding result in the experiment with mouse CD20 was “binds”.

B4: R3MUC66 (VHH)
VHH: QVQLQESGGGLVQAGGSLRLSCAASGRDFATYSMTWFRQAPGKERESVATISWSGQRTRYADSVKGRFTISRDNAKNTVYLQMNSLRPEDTAVYYCAAPRTWGEFPPTQYDSWGQGTQVTVSS
notes: as for B1
As for B4, the binding result in the experiment with mouse CD20 is given as “binds”.

B5: R3MUC17 (VHH)
VHH: QVQLQESGGGLVPAGGSLRLSCAASGRDFATYSMAWFRQAPGKERESVATISWSGQRTRYADSVKGRFTISRDNAKNTVYLQMNSLKPEDTAVYYCAAPRTWGEFPPTQYDSWGQGTQVTVSS
notes: as for B1
On to B5, for which, in the experiment with mouse CD20, the binding result is on record as “binds”.

B6: R3MUC75 (VHH)
VHH: QVQLQESGGGSVQTGGSLRLSCAASGRDFSTYSMGWFRQAPGKERESVATISWSGQRTRYADSVKGRFTISRDNAKNTVYLQMNSLKPEDTAVYYCAAPRTWGEFPPTQYDSWGQGTQVTVSS
notes: as for B1
On to B6, for which the binding result in the experiment with mouse CD20 is reported as “binds”.

B7: R3MUC56 (VHH)
VHH: QVQLQESGGGLVQAGDSLRLSCAASGRDFATYSMAWFRQAPGKERESVATISWSGQRTRYADSVKGRFTISRDNAKNTVYLQMNSLKPEDTAVYYCAAPRTWGEFPPTQYDSWGQGTQVTVSS
notes: as for B1
As to B7, the binding result in the experiment with mouse CD20 is given as “binds”.

B8: R3MUC22 (VHH)
VHH: QVQLQESGGGLVQAGGSLRLSCAASGRTFSTYSMGWFRQAPGKEREFVAIISWSGQRTRYADSVKGRFTISRDNAKNTVYLQMNSLKPEDTAVYYCAAPRTWGEFPPTQYDSWGQGTQVTVSS
notes: as for B1
With B8, the binding result in the experiment with mouse CD20 is “binds”.

B9: 2MC52 (VHH)
VHH: QVQLQESGGGLVQAGGSLRLSCVASGRTFNTYSMGWFRQAPGKEREFVASISWSGQRSRYADSVKGRFTISRDNAKNTVYLQMNSLKPEDTAVYYCASPRTWGEFPPTQYDSWGQGTQVTVSS
notes: as for B1
For B9, the binding result in the experiment with mouse CD20 is “binds”.

B10: R2MUC21 (VHH)
VHH: QVQLQESGGGLVQAGDSLRLSCAASGRDFSTYSMGWFRQAPGKERESVATISWSGQRTRYADSVKGRFTISRDNAKNTVYLQMNSLKPEDTAVYYCAAPRTWGEFPPTQYDSWGQGTQVTVSS
notes: as for B1
For the molecule B10, the binding result in the experiment with mouse CD20 is given as “binds”.

B11: 2MC57 (VHH)
VHH: QVQLQESGGGLVQAGGSLRLSCAASGRDFATYSMAWFRQAPGKERESVATISWSGQRTRYADSVKGRFTISRDNAKNTVYLQMNSLKPEDTAVYYCAMPRTWGEFPPTQYDSWGQGTQVTVSS
notes: Whole entry = VHH-AAA-HA-His6 (pMECS construct); also called mCD20 Nb
Turning to B11, the binding result with mouse CD20 was “binds”.

B12: R3MUC57 (VHH)
VHH: QVQLQESGGGLVQAGGSLRLSCAASGRDFATYSMAWFRQAPGEERESVATISWSGQRTRYADSVKGRFTISRDNAKNTVYLQMNSLKPEDTAVYYCAAPRTWGEFPPTQYDSWGQGTQVTVSS
notes: as for B1
Regarding B12, the binding result in the experiment with mouse CD20 is recorded as “binds”.

B13: R2MUC36 (VHH)
VHH: QVQLQESGGGLVQAEGSLRLSCAASGRTRDANAMGWFRQAPGKERELVAAISWSGSRTYYADSVKGRFTISRDNVMHTVYLSMNSLKPEDTAVYYCAADRSIEVQIADYDYWGRGTQVTVSS
notes: as for B1
For B13, in the experiment with mouse CD20, the binding result is listed as “binds”.

B14: 2MC39 (VHH)
VHH: QVQLQESGGGLAQAGNSLRISCVASGNTFDTRAMGWFRQAPGKEREFVAAISRSSFNTYYSDSVTGRFTISRDNAKNTVYLQMNSLKPEDTAVYYCAAGKYGMKWRDGADYWGQGTQVTVSS
notes: as for B1
Consider B14, for which, in the experiment with mouse CD20, the binding result is recorded as “binds”.

B15: 2MC38 (VHH)
VHH: QVQLQESGGGLVQAGESLRISCVASGNTFDTRAMGWFRQAPGKEREFVAAISRSSFNTYYSDSVTGRFTISRDNAKNTVYLQMNSLKPEDTAVYYCVAGKYGMKWRDGADYWGQGTQVTVSS
notes: as for B1
B15: in the experiment with mouse CD20, the binding result is “binds”.

B16: 2MC20 (VHH)
VHH: QVQLQESGGGLVQTGGSLRLSCAASGNTFDTRAMGWFRQAPGKEREFVAAISRSSFNTYYSDSVTGRFTISRDNAKNTVYLQMNSLKPEDTAVYYCAAGKYGMKWRDGADYWGQGTQVTVSS
notes: as for B1
As for B16, in the experiment with mouse CD20, the binding result is “binds”.

B17: 2MC42 (VHH)
VHH: QVQLQESGGGSVQTGGTLTLSCVASGNTFDTRAMGWFRQAPGEEREFVAAISRSSFNTYYSDSVTGRFTISRDNAKNTVYLQMNSLKPEDTAVYYCAAGKYGMKWRDGADYWGQGTQVTVSS
notes: as for B1
For the molecule B17, the binding result with mouse CD20 was “binds”.

B18: 2MC82 (VHH)
VHH: QVQLQESGGGLAQEGGSLRLSCVASGNTFDTRAMGWFRQAPGKEREFVAAISRSSFNTYYSDSVTGRFTISRDNAKNMVYLQMNSLKPEDTAVYYCAAGKYGMKWRDGADYWGQGTQVTVSS
notes: as for B1
Take B18: in the experiment with mouse CD20, the binding result is recorded as “binds”.

B19: 2MC51 (VHH)
VHH: QVQLQESGGGLAQAGNSLRISCVASGNTFDTRAMGWFRQAPGKEREFVAAISRSSFNTYYSDSVTGRFTISRDNAKNTVYLQMNSLKPEDTAVYYCVAGKYGMKWRDGADYWGQGTQVTVSS
notes: as for B1
In the case of B19, in the experiment with mouse CD20, the binding result is listed as “binds”.

B20: 2HCD16 (VHH)
VHH: QVQLQESGGGLVQAGGSLRLSCAASGRTFSRQSMGWFRQAPGKEREFVAVITWSGGSPYYADSVRGRFTISRDNAKNTVYLQMNSLKPEDTAVYYCAAPVSYGSQWLADYWGQGTQVTVSS
notes: as for B1
For B20, the binding result with human CD20 was “binds”.

B21: 2HCD42 (VHH)
VHH: QVQLQESGGGLVQAGGSLRLSCAASGRTFSSYAMGWFRQAPGKEREFVAVITWSGGSPYYADSVRGRFTISRDNAKNTVYLQMNSLKPEDTAVYYCAAPVSYGSQWLADYWGQGTQVTVSS
notes: as for B1
In the case of B21, in the experiment with human CD20, the binding result is recorded as “binds”.

B22: R3CD7 (VHH)
VHH: QVQLQESGGGLVQAGGSLRLSCAASGRSFSSVNMGWFRQAPGKEREFVAVIDWSGGSPYYTDSVRGRFTISRDNSKNTVYLQMNSLKPEDTAVYYCAAGVSYGSRWLGDYWGQGTQVTVSS
notes: as for B1
B22: the binding result in the experiment with human CD20 is “binds”.

B23: 2HCD35 (VHH)
VHH: QVQLQESGGGLVQAGGSLRLSCAASGRTFSGQSMGWFRQAPGKEREFVAVITWSGGSPYYADSVRGRFTISRDNAKNTVHLQMNSLKPEDTAVYYCAAPVSYGSQWLADYWGQGTQVTVSS
notes: as for B1
For the molecule B23, in the experiment with human CD20, the binding result is given as “binds”.

B24: 2HCD22 (VHH)
VHH: QVQLQESGGGLVQAGDSLRLSCAASGRTFSRQSMGWFRQAPGKEREFVAVITWSGGSPYYADSVKGRFTISRDNAKNTVYLQMNSLKPEDTAVYYCAAPVSYGSQWLADYWGQGTQVTVSS
notes: as for B1
Turning to B24, the binding result with human CD20 is on record as “binds”.

B25: R3CD18 (VHH)
VHH: QVQLQESGGGLVQAGGSLRLSCAASGRTFSNSNMGWFRQAPGKEREFVAVIDWSGGSPYYTDSVRGRFTISRDNAKNTVYLQMNRLKPEDTAVYYCAGGVSFGSRWLSDYWGQGTQVTVSS
notes: as for B1
B25: the binding result in the experiment with human CD20 was “binds”.
